Results reported in patent US20250270339A1 (Alector, published 2025).

What was measured:
[1] = target: T1, huTfR Apical Domain-Avi-His (human, biotin on the Avi tag (BirA) where captured on streptavidin); assay: ELISA OD450, supernatant
T1 construct: also called huTfR apical Avi-His; hTfR Apical
T1 chain: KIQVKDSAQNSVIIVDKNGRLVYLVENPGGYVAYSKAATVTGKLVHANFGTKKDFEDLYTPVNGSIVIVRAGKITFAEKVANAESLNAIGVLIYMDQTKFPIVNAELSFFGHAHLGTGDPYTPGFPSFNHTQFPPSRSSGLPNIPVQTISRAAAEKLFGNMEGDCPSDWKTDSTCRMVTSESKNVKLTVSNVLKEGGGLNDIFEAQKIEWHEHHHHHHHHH
Description: Hybridoma culture supernatants from 319 hybridomas obtained as described above were screened for their ability to bind Avi-His-tagged huTfR ECD, huTfR apical domain, and muTfR ECD (as described in Example 1) as compared to binding to an irrelevant Avi-His-tagged control protein. Briefly, 96-well polystyrene plates were coated with 5 μg/ml of streptavidin (Thermo Fisher, Cat #PI21125) in coating buffer (0.05M carbonate buffer, pH 9.6, Sigma, Cat #C3041) overnight at 4° C. Coated plates were then blocked with ELISA diluent (PBS+0.5% BSA+0.05% Tween20) for one hour. Blocking buffer was removed and Avi-His-tagged human TfR, human TfR apical domain, mouse TfR and an irrelevant Avi-His-tagged protein were added at 1 μg/ml in ELISA diluent and captured for 1 hour at room temperature. After washing three times with 300 μl of PBST (PBS+0.05% Tween20, Thermo 28352), the hybridoma cell culture supernatants were added (50 μl/well) to each well. After 30 minutes of incubation at room temperature, the plates were washed three times with 300 μl of PBST. Anti-mouse IgG Fc-HRP or anti-rat IgG Fc-HRP (Jackson Immunoresearch, Cat #115-035-071 and 112-036-071, respectively) secondary antibodies were diluted 1:5000 in ELISA diluent, added to each well at 50 μl/well, and incubated for 30 minutes at room temperature with shaking. After a final set of washes (3×300 μl in PBST), 50 μl/well of BioFx TMB substrate (Surmodics, Cat #TMBW-1000-01) was added to the wells. The reaction was then quenched after 5-10 mins with 50 μl/well of 2N sulfuric acid. The plates were read for absorbance at 450 nm on a SpectraMax M5 (Molecular Devices, Sunnyvale, CA) using SoftMax Pro software.

[2] = target: T2, Full length human TfR on CHO cells (human, UniProt P02786 1-760); assay: FACS MFI, supernatant
T2 construct: also called CHO + huTfR; CHO + hTfR
T2 sequence (P02786 whole entry): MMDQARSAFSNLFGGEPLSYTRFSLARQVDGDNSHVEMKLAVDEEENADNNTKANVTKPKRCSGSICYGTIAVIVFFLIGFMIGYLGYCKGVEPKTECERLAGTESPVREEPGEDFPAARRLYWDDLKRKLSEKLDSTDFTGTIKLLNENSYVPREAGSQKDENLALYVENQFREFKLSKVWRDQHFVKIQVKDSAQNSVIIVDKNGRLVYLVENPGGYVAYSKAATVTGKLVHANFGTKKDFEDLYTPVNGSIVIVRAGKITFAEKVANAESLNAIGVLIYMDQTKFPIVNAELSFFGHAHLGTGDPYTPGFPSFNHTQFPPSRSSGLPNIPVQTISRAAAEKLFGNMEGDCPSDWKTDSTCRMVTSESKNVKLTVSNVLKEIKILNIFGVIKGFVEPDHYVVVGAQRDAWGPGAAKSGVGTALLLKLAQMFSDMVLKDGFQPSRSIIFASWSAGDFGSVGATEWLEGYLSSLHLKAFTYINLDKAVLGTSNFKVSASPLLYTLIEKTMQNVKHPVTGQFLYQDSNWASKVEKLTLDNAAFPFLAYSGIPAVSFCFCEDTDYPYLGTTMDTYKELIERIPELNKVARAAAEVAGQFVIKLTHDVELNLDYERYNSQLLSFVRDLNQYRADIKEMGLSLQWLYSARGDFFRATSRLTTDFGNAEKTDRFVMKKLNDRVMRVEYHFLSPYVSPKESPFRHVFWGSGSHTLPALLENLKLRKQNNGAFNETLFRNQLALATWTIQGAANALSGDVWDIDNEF
Description: (§1) A total of 1536 anti-TfR hybridoma supernatants were initially screened for their ability to differentially bind CHO cells overexpressing human or mouse TfR cells compared to CHO parental cells by FACS. Overexpressing cells were harvested, washed and labeled with Pacific Blue, FITC and Pacific Orange dyes (ThermoFisher) to create uniquely barcoded cell populations. Barcoded cells (5×10⁴ of each cell population) were aliquoted into 96-well U-bottom plates and incubated with 50 μl of hybridoma cell culture supernatant or […] of commercially available purified mouse anti-human TfR monoclonal antibody (Sigma Aldrich, Cat #SAB4700515) and rat anti-mouse TfR antibody (Invitrogen, Waltham, MA, Cat #R17217) on ice for 30 minutes. After this primary incubation, the supernatants were removed via centrifugation, the cells were washed twice with 175 μl of ice-cold FACS buffer (PBS+1% FBS+2 mM EDTA), and the cells were then further incubated on ice for 20 minutes with anti-mouse IgG Fc-allophycocyanin (APC) or anti-rat IgG Fc-APC (Jackson Labs, Cat #115-136-071 and Cat #112-136-071, respectively) (diluted 1:1000). Following this secondary antibody incubation, the cells were again washed twice with ice-cold FACS buffer and resuspended in a final volume of 50 μl of FACS buffer. Binding intensity on cells was analyzed using the FACS Canto system (BD Biosciences), and the ratio of APC Mean Fluorescence Intensity (MFI) on each barcoded cell population was determined for each anti-TfR hybridoma supernatant tested.

[3] = target: T3, Full length Mouse TfR on CHO cells (mouse, UniProt Q62351 1-763); assay: FACS MFI, supernatant
T3 construct: also called CHO + muTfR
T3 sequence (Q62351 whole entry): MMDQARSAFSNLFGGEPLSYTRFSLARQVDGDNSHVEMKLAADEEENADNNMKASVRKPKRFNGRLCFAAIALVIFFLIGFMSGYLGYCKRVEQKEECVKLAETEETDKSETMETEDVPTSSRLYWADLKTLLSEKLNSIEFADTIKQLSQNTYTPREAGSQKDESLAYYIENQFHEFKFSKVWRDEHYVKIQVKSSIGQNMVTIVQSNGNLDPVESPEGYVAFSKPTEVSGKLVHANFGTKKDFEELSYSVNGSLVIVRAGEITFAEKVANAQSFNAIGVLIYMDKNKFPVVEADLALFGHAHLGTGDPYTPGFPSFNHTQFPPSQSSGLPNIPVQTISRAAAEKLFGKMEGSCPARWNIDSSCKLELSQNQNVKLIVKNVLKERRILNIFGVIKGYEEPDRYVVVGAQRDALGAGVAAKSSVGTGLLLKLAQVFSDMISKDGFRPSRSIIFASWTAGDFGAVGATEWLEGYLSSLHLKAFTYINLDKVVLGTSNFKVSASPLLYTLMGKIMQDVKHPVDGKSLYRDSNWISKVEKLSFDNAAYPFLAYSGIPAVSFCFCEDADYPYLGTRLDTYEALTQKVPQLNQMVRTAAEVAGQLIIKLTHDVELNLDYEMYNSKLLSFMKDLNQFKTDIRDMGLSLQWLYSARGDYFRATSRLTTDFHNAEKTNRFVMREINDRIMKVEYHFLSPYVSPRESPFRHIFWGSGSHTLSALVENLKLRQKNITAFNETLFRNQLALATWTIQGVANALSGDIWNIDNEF
Description: as §1

[4] = target: T3, Full length Mouse TfR on CHO cells; assay: FACS, CHO+muTfR
Description: as §1

Binder	ratio over irrelevant protein [1] [fold]	fold over parental (CHO WT) [2] [fold]	fold over parental (CHO WT) [3] [fold]	binding result [4]
TfR30 (mouse hybridoma antibody) (antibody, V domains shown, mouse IgG in hybridoma supernatant) VH: QVQLQQSGPQLVRPGASVKISCKASGYSFTNYWLHWVKQRPGQGLEWIGMIDPSDSETRLNQKFKDKATLTVDKSSSTAYMQLSSPTSEDSAVYYCARWGGGYYGFAYWGQGTLVTVSA VL: DIVMTQSQKFMSTSVGDRVSITCKASQNVRTAVAWYQQKPGQSPKALIYLASNRHTGVPDRFTGSGSGTDFTLTISNVQSEDLADYFCLQHWNYPWTFGGGTKLEIK	29	169	1	
TfR9 (mouse hybridoma antibody) (antibody, V domains shown, mouse IgG in hybridoma supernatant) VH: EVQLQQSGPELVKPGASVKISCKTSGYTFTEYAMHWVKQSHGKSLEWIGGINPNDGGTSYNQKFKGKATLTVDKSSSTAYMELRSLTSEDSAVYYCSSQRWLLRGGDYWGQGTTLTVSS VL: not shown	10	203	1	no binding
TfR2 (mouse hybridoma antibody) (antibody, V domains shown, mouse IgG in hybridoma supernatant) VH: EVQLQQSGPELVKPGASVKISCKASGYTFTDYNMHWVKQSHGKSLEWIGYIYPYNGGTGYNQKFKSKATLTVDNSSSTAYMELRSLTSEDSAVYYCATLYDGYYFDYWGQGTTLTVSS VL: DILLTQSPAILSVSPGERVSFSCRASQSIGTSIHWYQQRTNGSPRLLIKYASESISGIPSRFSGSGSGTDFTLSINNVESEDIADYYCQQSNSWPFTFGSGTKLEIK	5	458	1	no binding
TfR1 (mouse hybridoma antibody) (antibody, V domains shown, mouse IgG in hybridoma supernatant) VH: QVQLQQSGPELVKPGASVKMSCKASGYTFTNYYIHWVKQRPGQGLEWIGWIYPGDGSTKYNEKFKGKTTLTADKSSSTAYMLLSSLTSEDSAIYFCARDGSSAPKFTYWGQGTLVTVSA VL: DIVMTQSPSSLTVTAGEKVTMRCKSSQSLLNSGNQKNYLTWYQQKPGQPPKLLIYWASTRESGVPDRFTGSGSGTDFTLTISSVQAEDLAVYYCQNDYSYPLTFGAGTKLELK	22	228	1	no binding
TfR3 (mouse hybridoma antibody) (antibody, V domains shown, mouse IgG in hybridoma supernatant) VH: QVQLRQSGPELVKPGASVRISCKASGYTFTSFYIHWVKQRPGQGLEWIGWIYPGDVNTHYSDKFKGKATLTADKSSSTAYMQLSSLTSEDSAVYFCAREGYGYFAYWGQGTLVTVSA VL: DIVMTQSPSSLTVTAGEKVTMSCKSSQSLLNSGNQKNYLTWYQQKPGQPPKLLIYWASTRESGVPDRFTGVGSGTDFTLTISSVQAEDLAVYYCQNDYSYPLTFGSGTKLELK	37	38	1	no binding
TfR5 (mouse hybridoma antibody) (antibody, V domains shown, mouse IgG in hybridoma supernatant) VH: QVQLQQSGPELVKPGASVKMSCKASGYTFTNYYIHWVKQRPGQGLEWIGWIYPGDGNTNYNEKFKGKTTLTADKSSSTAYMLLSSLTSEDSAIYFCARDGSSAPKFTYWGQGTLVTVSA VL: DIVMTQSPSSLTVTAGEKVTMRCKSSQSLLNSGNQKNYLTWYQQKPGQPPKLLFYWASTRESGVPDRFTGSGSGTDFTLTISSVQAEDLAVYYCQNDYSYPLTFGAGTKLELK	15	561	1	no binding
TfR4 (mouse hybridoma antibody) (antibody, V domains shown, mouse IgG in hybridoma supernatant) VH: QVQLQQSGAELVRPGTSVKVSCKASGYAFTNYLIEWVKQRPGQGLEWIGVINPGSGGTTYNEKFKGKATLTADKSSSTAYMQLSGLTSDDSAVYFCARRSPYFDYWGQGTTLTVSS VL: SIVMTQTPKFLLVSAGDRVTITCKASQSVSNDVAWYQQKPGQSPKLLIYYASNRYTGVPDRFTGSGYGTDFTFTISTVQAEDLAVYFCHQDYISPTFGGGTKLEIK	42	61	1	no binding
TfR8 (mouse hybridoma antibody) (antibody, V domains shown, mouse IgG in hybridoma supernatant) VH: QVQLQQSGAELVRPGTSVKVSCKASGYAFTNYLIEWVKQRPGQGLEWIGVINPGSGGTNYNEKFKGKATLTADKSSSTAYMQLSSLTSDDSAVYFCARRSPYFDYWGQGTTLTVSS VL: SIVMTQTPKFLLVSAGDRVTITCKASQSVSNDVAWYQQKPGQSPKLLIYYASNRYTGVPDRFTGSGYGTDFTFTISTVQAEDLAVYFCHQDYISPTFGGGTKLEIK	37	215	1	no binding
TfR18 (mouse hybridoma antibody) (antibody, V domains shown, mouse IgG in hybridoma supernatant) VH: QVQLQQSGAELVRPGTSVKVSCKASGYAFTNYLIEWIKQRPGQGLEWIGVINPGNNDTTYNEMFKAKTTLTADKSSNTAYMQLSSLTSDDSAVYFCARRSPYFDYWGQGTTLTVSS VL: SIVMTQTPKFLLVSAGDRVTITCKASQSVSNDVAWYQQKPGQSPKLLIYYASNRYTGVPDRFTGSGYGTDFTFTISTVQAEDLAVYFCHQDYSSPTFGGGTKLEIK	32	75	1	no binding
TfR6 (mouse hybridoma antibody) (antibody, V domains shown, mouse IgG in hybridoma supernatant) VH: DVQLVESGGGLVQPGGSRKLSCAASGFTFSSFGMHWVRQAPEKGLEWVAYISSGSSAIYYADTVKGRFTVSRDNPKNTLFLQMTSLRSEDTAIYYCATSYVYDPPWFAYWGQGTLVTVSA VL: DIVMTQSHKFMSTSVGDRVSITCKASQDVSTAVAWYQQKPGQSPKLLIYWASTRPTGVPDRFTGSGSGTDYTLTISSVQAEDLALYSCQQHFSTPWTFGGGTKLEIK	37	451	1	no binding
TfR7 (mouse hybridoma antibody) (antibody, V domains shown, mouse IgG in hybridoma supernatant) VH: DVQLQESGPGLVKPSQSLSLTCTVTGYSITSDYAWNWLRQFPGNKLEWMGYISYSGYSRHNPSLKSRISITRDTSKNQFFLQLNSVTSEDTATYYCARGDWDFDYWGQGTTLTVSS VL: DIVMTQSQKFMSTSVGDRVSVTCKASQNVLTNVAWYQQKPGHSPKALIYSSSSRNSGVPDRFTGSGSGTDFTLTISNVQSEDLAEYFCQQYNTYPYTFGGGTKLEIK	48	87	1	no binding
